One block for each binder: values may come before it.
Legend:
[1] = target: T1, bovine LPL (bovine, UniProt P11151 29-478, limits assumed); test: cell-based or functional assay
T1 sequence (looked up): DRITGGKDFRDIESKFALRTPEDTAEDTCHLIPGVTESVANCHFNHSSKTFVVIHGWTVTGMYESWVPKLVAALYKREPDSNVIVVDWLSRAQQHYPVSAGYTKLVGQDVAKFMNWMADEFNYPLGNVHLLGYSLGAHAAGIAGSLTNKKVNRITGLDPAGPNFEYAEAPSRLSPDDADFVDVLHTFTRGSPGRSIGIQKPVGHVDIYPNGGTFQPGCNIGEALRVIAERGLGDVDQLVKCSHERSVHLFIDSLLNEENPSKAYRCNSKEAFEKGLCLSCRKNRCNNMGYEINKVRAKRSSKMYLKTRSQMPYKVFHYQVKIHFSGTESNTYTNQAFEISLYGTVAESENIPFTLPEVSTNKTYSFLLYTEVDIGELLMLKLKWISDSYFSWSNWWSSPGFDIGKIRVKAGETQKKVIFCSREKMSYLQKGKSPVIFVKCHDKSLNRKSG

[2] = target: T1, bovine LPL; test: cell-based or functional assay; remark: listed apart in the source

EC50 (nM), inhibition of LPL activity [1]: 16 nM
IC50 for blocking LPL [2]: 47 nM
B1: hANGPTL3(17-169)-mFc (Fc fusion)
chain: SRIDQDNSSFDSLSPEPKSRFAMLDDVKILANGLLQLGHGLKDFVHKTKGQINDIFQKLNIFDQSFYDLSLQTSEIKEEEKELRRTTYKLQVKNEEVKNMSLELNSKLESLLEEKILLQQKVKYLEEQLTNLIQNQPETPEHPEVTSLKTFVEEPRGPTIKPCPPCKCPAPNLLGGPSVFIFPPKIKDVLMISLSPIVTCVVVDVSEDDPDVQISWFVNNVEVHTAQTQTHREDYNSTLRVVSALPIQHQDWMSGKEFKCKVNNKDLPAPIERTISKPKGSVRAPQVYVLPPPEEEMTKKQVTLTCMVTDFMPEDIYVEWTNNGKTELNYKNTEPVLDSDGSYFMYSKLRVEKKNWVERNSYSCSVVHEGLHNHHTTKSFSRTPGK

EC50 (nM), inhibition of LPL activity [1]: 199 nM
IC50 for blocking LPL [2]: 341 nM
B2: mANGPTL3(17-240)-His (other)
chain: GAPSRVDPDLSSFDSAPSEPKSRFAMLDDVKILANGLLQLGHGLKDFVHKTKGQINDIFQKLNIFDQSFYDLSLRTNEIKEEEKELRRTTSTLQVKNEEVKNMSVELNSKLESLLEEKTALQHKVRALEEQLTNLILSPAGAQEHPEVTSLKSFVEQQDNSIRELLQSVEEQYKQLSQQHMQIKEIEKQLRKTGIQEPSENSLSSKSRAPRTTPPLQLNETENTEQDASHHHHHH

From patent US20150197564A1 (Regeneron, published 2015)
